Values joined by “and” are separate entries in the source; they are usually repeats but may differ in a detail not shown here. Equal entries are not always repeated.

Assay [1] addresses GST-PSD95 PDZ domains 1, 2, 3 (Homo sapiens), P78352. Nature of the assay: G assay competition vs 10 uM biotin-CD95 20-mer; competitor 50 uM.
Assay [2] shares this target. Nature of the assay: G assay competition vs 20 uM biotin-CD46 20-mer; competitor 50 uM.
Assay [3] has the same target. Nature of the assay: G assay competition vs 10 uM biotin-KV1.3 20-mer; competitor 50 uM.
The target is the same in assay [4]. The assay can be described thus: G assay competition vs 20 uM biotin-CLASP-2 20-mer; competitor 50 uM.
Assay [5] addresses T1, GST-APXL-1 PDZ domain 1 (Homo sapiens (Human)), Q13796.
T1 chain: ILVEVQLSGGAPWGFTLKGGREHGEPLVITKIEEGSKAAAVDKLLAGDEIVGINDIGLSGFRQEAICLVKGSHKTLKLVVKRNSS
The assay can be described thus: G' assay. Also: key of the grades not given here.

Assay [6] concerns the target T2, GST-EZRIN Binding Protein 50 PDZ domain 1 (Homo sapiens (Human)), O14745.
T2 chain: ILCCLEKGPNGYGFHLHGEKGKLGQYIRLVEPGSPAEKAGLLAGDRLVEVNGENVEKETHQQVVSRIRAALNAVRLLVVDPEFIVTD
The assay can be described thus: G' assay. Also: key of the grades not given here.

Assay [7] deals with T3, GST-EZRIN Binding Protein 50 PDZ domain 2 (Homo sapiens (Human)), O14745.
T3 chain: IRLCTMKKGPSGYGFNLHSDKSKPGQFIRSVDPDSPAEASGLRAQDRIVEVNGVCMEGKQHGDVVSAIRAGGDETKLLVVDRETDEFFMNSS
Nature of the assay: G' assay. Also: key of the grades not given here.

Assay [8] deals with T4, GST-FLJ 10324 PDZ domain 1 [GST: P08515].
T4 chain: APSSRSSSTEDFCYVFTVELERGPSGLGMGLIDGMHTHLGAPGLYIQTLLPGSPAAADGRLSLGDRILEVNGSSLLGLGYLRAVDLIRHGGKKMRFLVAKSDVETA
Nature of the assay: G' assay. Also: key of the grades not given here.

The target in assay [9] is T5, GST-INADL PDZ domain 8 (Homo sapiens (Human)), Q8NI35.
T5 chain: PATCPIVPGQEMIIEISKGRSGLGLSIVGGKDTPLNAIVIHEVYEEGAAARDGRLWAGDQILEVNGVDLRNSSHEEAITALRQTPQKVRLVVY
Nature of the assay: G' assay. Also: key of the grades not given here.

Assay [10] concerns the target T6, GST-KIAA0807(S) PDZ domain 1 (Homo sapiens (Human)), Q6P0Q8.
T6 chain: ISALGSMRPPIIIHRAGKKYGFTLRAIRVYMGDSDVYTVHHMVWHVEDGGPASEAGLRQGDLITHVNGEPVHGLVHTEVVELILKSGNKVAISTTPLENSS
Nature of the assay: G' assay. Also: key of the grades not given here.

Assay [11] concerns the target T7, GST-KIAA0973 PDZ domain 1 (Homo sapiens (Human)), Q9Y2H9.
T7 chain: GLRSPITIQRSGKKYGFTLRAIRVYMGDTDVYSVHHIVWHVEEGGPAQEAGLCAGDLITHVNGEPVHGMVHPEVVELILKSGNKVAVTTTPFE
The assay can be described thus: G' assay.

The target in assay [12] is T8, GST-KIAA1526 PDZ domain 1 (Homo sapiens (Human)), Q9P202.
T8 chain: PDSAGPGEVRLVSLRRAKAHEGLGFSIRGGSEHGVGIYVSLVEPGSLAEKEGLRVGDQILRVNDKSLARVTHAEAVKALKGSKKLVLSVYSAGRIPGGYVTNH
Nature of the assay: G' assay.

Assay [13] concerns the target GST-KIAA807 [GST: P08515]. Nature of the assay: G' assay.
Assay [14] addresses T9, GST-MINT1 PDZ domain 2 (Mus musculus (Mouse)), B2RUJ5.
T9 chain: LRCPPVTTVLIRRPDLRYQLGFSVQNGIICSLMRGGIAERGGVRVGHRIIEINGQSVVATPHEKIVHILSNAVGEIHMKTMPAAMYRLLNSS
Nature of the assay: G' assay.

Assay [15] has as its target T10, GST-MUPP1 PDZ domain 10 (Homo sapiens (Human)), O75970.
T10 chain: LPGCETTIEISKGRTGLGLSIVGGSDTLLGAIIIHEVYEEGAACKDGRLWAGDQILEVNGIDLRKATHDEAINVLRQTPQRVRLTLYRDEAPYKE
Nature of the assay: G' assay.

In assay [16] the target is T11, GST-MUPP1 PDZ domain 13 (Homo sapiens (Human)), O75970.
T11 chain: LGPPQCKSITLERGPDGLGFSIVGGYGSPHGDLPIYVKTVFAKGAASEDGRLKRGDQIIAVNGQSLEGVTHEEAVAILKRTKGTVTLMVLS
Nature of the assay: G' assay.

Assay [17] concerns the target T12, GST-Outer Membrane PDZ domain 1 (Homo sapiens (Human)), P57105.
T12 chain: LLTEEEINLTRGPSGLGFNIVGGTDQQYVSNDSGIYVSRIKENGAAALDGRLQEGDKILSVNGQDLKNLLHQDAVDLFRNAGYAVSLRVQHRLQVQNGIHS
The assay can be described thus: G' assay.

The target of assay [18] is T13, GST-PDZK1 PDZ domains 2, 3, 4, Q5T2W1.
T13 chain: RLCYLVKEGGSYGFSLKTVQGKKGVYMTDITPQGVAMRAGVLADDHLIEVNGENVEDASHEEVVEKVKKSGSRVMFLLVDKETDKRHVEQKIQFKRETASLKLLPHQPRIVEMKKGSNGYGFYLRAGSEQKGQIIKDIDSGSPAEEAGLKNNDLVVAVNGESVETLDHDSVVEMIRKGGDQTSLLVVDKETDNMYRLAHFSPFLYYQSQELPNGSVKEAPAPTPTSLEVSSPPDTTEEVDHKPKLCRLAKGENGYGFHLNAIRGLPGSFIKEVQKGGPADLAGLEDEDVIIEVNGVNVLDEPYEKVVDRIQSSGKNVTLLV
The assay can be described thus: G' assay.

Assay [19] deals with GST-PIST PDZ domain 1 (Mus musculus (Mouse)), Q8BH60. The assay can be described thus: G' assay. Also: key of the grades not given here.
In assay [20] the target is T14, GST-Shank 1 PDZ domain 1 (Homo sapiens (Human)), Q9UPX8.
T14 chain: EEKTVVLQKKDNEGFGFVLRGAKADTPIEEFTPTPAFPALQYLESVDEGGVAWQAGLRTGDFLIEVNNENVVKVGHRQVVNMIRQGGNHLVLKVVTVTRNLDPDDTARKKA
Nature of the assay: G' assay.

Assay [21] has as its target T15, GST-Shank 3 PDZ domain 1 (human (hypothetical, computer cloned)), Q9BYB0.
T15 chain: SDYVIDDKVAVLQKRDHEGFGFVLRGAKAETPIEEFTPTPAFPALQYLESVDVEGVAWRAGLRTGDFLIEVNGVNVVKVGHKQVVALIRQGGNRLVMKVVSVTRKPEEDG
The assay can be described thus: G' assay.

The target in assay [22] is T16, GST-Syntrophin gamma 2 PDZ domain 1 (Homo sapiens (Human)), Q9NY99.
T16 chain: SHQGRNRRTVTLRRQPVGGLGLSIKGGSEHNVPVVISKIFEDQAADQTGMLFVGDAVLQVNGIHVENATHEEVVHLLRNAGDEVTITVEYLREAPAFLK
The assay can be described thus: G' assay.

The target in assay [23] is T17, GST-ZO-2 PDZ domain 1 (Homo sapiens (Human)), Q9UDY2.
T17 chain: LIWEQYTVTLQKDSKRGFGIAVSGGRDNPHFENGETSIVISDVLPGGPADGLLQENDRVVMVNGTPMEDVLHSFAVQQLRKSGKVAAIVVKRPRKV
Nature of the assay: G' assay.

Assay [24] deals with T18, GST-rat SHANK 3 PDZ domain 1 (rat), Q9JLU4.
T18 chain: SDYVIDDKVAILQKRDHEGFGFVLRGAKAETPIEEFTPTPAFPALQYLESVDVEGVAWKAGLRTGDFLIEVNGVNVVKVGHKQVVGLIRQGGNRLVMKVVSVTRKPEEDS
Nature of the assay: G' assay.

Assay [25] deals with T19, GST-AIPC PDZ domain 1 (Homo sapiens (Human)), O15018.
T19 chain: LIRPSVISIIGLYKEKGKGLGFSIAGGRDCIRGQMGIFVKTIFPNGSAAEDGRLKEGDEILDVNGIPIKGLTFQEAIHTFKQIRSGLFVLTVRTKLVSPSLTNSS
The assay can be described thus: G' assay.

Assay [26] addresses GST-BAI-1 Associated Protein PDZ domain 5 (Homo sapiens (Human)), Q96QZ7. Nature of the assay: G' assay. Also: key of the grades not given here.
The target of assay [27] is T20, GST-DLG1 PDZ domain 2 (Homo sapiens), Q12959.
T20 chain: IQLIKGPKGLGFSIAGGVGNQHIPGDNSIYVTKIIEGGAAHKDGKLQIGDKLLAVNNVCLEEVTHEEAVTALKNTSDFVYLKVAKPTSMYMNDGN
Nature of the assay: G' assay.

For assay [28], the target named is GST-DLG1 PDZ domains 1, 2 (Homo sapiens), Q12959. The assay can be described thus: G' assay. Also: key of the grades not given here.
Assay [29] addresses T21, GST-DLG2 PDZ domain 2 (Homo sapiens (Human)), Q15700.
T21 chain: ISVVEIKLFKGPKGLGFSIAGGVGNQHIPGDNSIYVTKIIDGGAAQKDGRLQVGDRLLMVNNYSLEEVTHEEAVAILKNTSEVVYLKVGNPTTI
Nature of the assay: G' assay.

Assay [30] addresses GST-KIAA1634 PDZ domain 1 (Homo sapiens (Human)), Q5TCQ9. Nature of the assay: G' assay. Also: key of the grades not given here.
The target in assay [31] is T22, GST-KIAA1634 PDZ domain 2 (Homo sapiens (Human)), Q5TCQ9.
T22 chain: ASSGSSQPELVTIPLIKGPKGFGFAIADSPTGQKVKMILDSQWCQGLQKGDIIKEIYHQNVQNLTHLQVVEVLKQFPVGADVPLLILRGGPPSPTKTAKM
Nature of the assay: G' assay.

Assay [32] deals with GST-KIAA1634 PDZ domain 4 (Homo sapiens (Human)), Q5TCQ9. Nature of the assay: G' assay. Also: key of the grades not given here.
Sequence of GST-KIAA1634 PDZ domain 4 (Homo sapiens (Human)), Q5TCQ9 (Q5TCQ9 844-945): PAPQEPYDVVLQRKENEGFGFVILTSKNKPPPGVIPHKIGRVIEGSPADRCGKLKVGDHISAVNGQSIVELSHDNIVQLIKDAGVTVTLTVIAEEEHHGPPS
Assay [33] addresses T23, GST-NeDLG PDZ domains 1, 2, Q92796.
T23 chain: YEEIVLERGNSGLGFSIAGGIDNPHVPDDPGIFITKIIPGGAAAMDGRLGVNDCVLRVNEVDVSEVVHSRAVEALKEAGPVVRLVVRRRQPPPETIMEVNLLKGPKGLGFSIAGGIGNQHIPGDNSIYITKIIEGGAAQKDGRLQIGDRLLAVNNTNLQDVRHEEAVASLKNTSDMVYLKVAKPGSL
The assay can be described thus: G' assay.

Assay [34] has as its target GST-PSD95 PDZ domains 1, 2, 3 (Homo sapiens), P78352. Nature of the assay: G' assay. Also: key of the grades not given here.
Assay [35] has as its target T24, GST-PTPL1 PDZ domain 2 (Homo sapiens (Human)), Q12923.
T24 chain: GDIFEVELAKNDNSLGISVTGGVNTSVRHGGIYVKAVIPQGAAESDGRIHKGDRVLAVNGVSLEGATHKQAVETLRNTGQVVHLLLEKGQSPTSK
Nature of the assay: G' assay.

For assay [36], the target named is T25, GST-PTPL1 PDZ domain 4 (Homo sapiens (Human)), Q12923.
T25 chain: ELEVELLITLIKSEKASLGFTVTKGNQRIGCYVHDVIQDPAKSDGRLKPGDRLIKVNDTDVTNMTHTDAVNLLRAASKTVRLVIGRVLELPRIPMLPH
Nature of the assay: G' assay.

Assay [37] deals with GST-DLG1 PDZ domains 1, 2 (Homo sapiens), Q12959. Nature of the assay: G assay titration, PDZ 0.3 ug/ml.
Assay [38] addresses T26, GST-TIP-1 (Example 3) (human), O14907.
T26 chain: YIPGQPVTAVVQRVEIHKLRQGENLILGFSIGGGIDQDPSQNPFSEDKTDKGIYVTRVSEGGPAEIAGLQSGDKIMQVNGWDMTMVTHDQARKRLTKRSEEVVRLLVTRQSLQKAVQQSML
The assay can be described thus: G assay titration, PDZ 0.3 ug/ml.

Sequence of GST-PSD95 PDZ domains 1, 2, 3 (Homo sapiens), P78352 (P78352 62-395): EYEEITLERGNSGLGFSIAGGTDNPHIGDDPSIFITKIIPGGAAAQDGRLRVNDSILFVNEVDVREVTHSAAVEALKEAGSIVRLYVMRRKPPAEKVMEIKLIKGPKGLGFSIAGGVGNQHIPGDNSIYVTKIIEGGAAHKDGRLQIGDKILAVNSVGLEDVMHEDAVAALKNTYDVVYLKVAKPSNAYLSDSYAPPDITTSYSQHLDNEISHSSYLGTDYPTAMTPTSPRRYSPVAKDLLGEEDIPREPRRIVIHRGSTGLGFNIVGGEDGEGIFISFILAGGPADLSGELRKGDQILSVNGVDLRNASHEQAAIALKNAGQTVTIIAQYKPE
Sequence of GST-KIAA807 [GST: P08515] (P08515 whole entry, the tested form may be a part): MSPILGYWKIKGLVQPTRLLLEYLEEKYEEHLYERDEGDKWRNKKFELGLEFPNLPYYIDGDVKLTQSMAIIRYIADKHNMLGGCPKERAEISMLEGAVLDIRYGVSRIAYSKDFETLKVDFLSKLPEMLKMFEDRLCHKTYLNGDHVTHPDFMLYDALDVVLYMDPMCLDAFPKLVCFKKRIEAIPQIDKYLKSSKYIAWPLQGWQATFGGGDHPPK
Sequence of GST-KIAA1634 PDZ domain 1 (Homo sapiens (Human)), Q5TCQ9 (Q5TCQ9 401-502): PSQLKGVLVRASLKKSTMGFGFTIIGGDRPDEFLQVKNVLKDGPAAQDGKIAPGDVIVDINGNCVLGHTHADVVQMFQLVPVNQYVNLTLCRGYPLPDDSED
Sequence of GST-BAI-1 Associated Protein PDZ domain 5 (Homo sapiens (Human)), Q96QZ7 (Q96QZ7 988-1099): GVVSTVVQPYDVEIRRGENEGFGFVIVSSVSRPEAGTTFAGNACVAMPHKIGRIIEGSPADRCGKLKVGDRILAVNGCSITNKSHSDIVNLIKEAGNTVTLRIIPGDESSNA

As for RNEIQSLV (modifications not checked) [unlabeled 8 amino acid peptide corresponding to the C-terminus of CD95], the % binding of labelled 20-mer was 75% in [1], 100% in assay [2], 87% in [3] and 92% in assay [4].

For the molecule PPATPSPRLALPAHHNATRL (modifications not checked) [Na+/Pi cotransporter 2], the Classification in assay [5] stood at 1 A450 class; in assay [6] it was 5 A450 class; in assay [7], 2 A450 class; in assay [8], 1 A450 class; in [9], 1 A450 class; in assay [10], 5 A450 class. Moreover, the Classification came to 2 A450 class in [11]; 1 A450 class in assay [12]; 5 A450 class in [13]; 1 A450 class in [14]; 1 A450 class in [15]; 1 A450 class in assay [16]. Besides, the Classification in assay [17] came to 1 A450 class; in [18] it was 1 A450 class; in assay [19] it was 1 A450 class; in assay [20] it was 5 A450 class; in assay [21], 5 A450 class; in assay [22] it was 1 A450 class. The Classification in assay [23] was determined as 1 A450 class; in assay [24] it was 4 A450 class.

As for KDITSDSENSNFRNEIQSLV (modifications not checked) [CD95], the Classification in assay [25] amounted to 1 A450 class; in [26], 3 A450 class; in [27], 1 A450 class; in assay [28], 2 A450 class; in assay [29] it was 1 A450 class; in assay [8] it was 1 A450 class. The Classification in assay [30], in assay [31], in assay [32], in assay [33], in assay [17] and in assay [34] was 1 A450 class throughout. Also, the Classification in [35] is 3 A450 class; in assay [36], 1 A450 class. In addition, the Kd (as a rule, a measure of binding affinity in units of concentration) in assay [37] is 15 µM and 20 µM; in assay [38], 20 µM and 25 µM. For the same molecule, the maximum OD (450 nm) was 2.6 OD and 2.1 OD in [37]; 2.6 OD and 3.5 OD in [38].
